# From patent US12090209B2, “Twin base linkers for virus inactivation” (priority 2020, dated 2024)
# Where no end group is shown, it is not given here.
# Molecular target: heat-inactivated SARS-CoV-2 spike (S) protein (Severe acute respiratory syndrome coronavirus 2, UniProt P0DTC2)
substance,measurement,value
"TBL-SADE: TBS monomer of Formula 1 wherein L=SADE (SEQ ID NO:2) peptide, no further targeting moieties (also: TBS monomer of Formula 1, L = SADE, functionalized)",binding to SARS-CoV-2 spike (S) protein,confirmed binding
